# B1: BPV1 E2 binding sites (E2BS) (dsDNA)
# DNA 1: ACCGTTGCCGGTCGGATCTGTACCGTTGCCGGTCGGATCTGTACCGTTGCCGGTCGGATCTGTACCGTTGCCGGTCGGATCTGTACCGTTGCCGGTCGGATCTGTACCGTTGCCGGTCGGATCTGTACCGTTGCCGGTCGGATCTGTACCGTTGCCGGTCGGATCTGTACCGTTGCCGGTC
# DNA 2: GACCGGCAACGGTACAGATCCGACCGGCAACGGTACAGATCCGACCGGCAACGGTACAGATCCGACCGGCAACGGTACAGATCCGACCGGCAACGGTACAGATCCGACCGGCAACGGTACAGATCCGACCGGCAACGGTACAGATCCGACCGGCAACGGTACAGATCCGACCGGCAACGGT
# Target: BPV1 E2 protein (Bovine papillomavirus 1, UniProt P03122 P03122:1-410)
# Sequence (P03122 whole entry, one chain of several): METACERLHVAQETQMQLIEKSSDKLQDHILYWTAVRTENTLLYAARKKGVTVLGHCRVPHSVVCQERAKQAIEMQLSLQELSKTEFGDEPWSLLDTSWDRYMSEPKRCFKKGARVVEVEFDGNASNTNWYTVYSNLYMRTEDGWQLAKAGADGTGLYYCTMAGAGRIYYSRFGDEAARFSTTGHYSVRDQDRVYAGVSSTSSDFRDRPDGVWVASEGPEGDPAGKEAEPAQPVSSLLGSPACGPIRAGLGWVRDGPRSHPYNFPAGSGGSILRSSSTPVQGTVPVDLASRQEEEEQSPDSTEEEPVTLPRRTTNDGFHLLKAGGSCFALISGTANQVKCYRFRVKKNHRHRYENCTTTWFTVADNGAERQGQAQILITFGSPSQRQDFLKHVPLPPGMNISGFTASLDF
# Assay: cell_activity
# Conditions: chain copies: 2
binder,measurement,value
B1,binding signal,~3.5 fold
